The values that follow come from article PMC3771917, “The Crystal Structure of the Orphan Nuclear Receptor NR2E3/PNR Ligand Binding Domain Reveals a Dimeric Auto-Repressed Conformation” (PLoS ONE, 2013).

This data set concerns the molecule itself. Put plainly: SEC; MBP-NR2E3 LBD in solution, compared with Bio-rad Protein Standard. (SEC sorts molecules by how far they enter the pores of the column.)

As a reminder, the stoichiometry N is the number of molecules, sites or subunits per partner or assembly.

B1: MBP-NR2E3 LBD-His6 fusion protein (MBP–NAAAEF linker–NR2E3(217-410)-His6, C275S) (domain or fragment, human, UniProt Q9Y5X4 217-410, looked up)
chain: LDSIHETSARLLFMAVKWAKNLPVFSSLPFRDQVILLEEAWSELFLLGAIQWSLPLDSSPLLAPPEASAAGGAQGRLTLASMETRVLQETISRFRALAVDPTEFACMKALVLFKPETRGLKDPEHVEALQDQSQVMLSQHSKAHHPSQPVRFGKLLLLLPSLRFITAERIELLFFRKTIGNTPMEKLLCDMFKN
notes: Both tags are non-cleavable; Expressed from pETDuet1; also called MBP-NR2E3 fusion protein; apo NR2E3 LBD; source: E. coli BL21 (DE3), purified (Ni-chelating Hi-Trap, Superdex 200 gel filtration); not shown: MBP (joined by the linker NAAAEF), N-terminal, kept; His6, C-terminal, kept
As to B1, the “stoichiometry N” value turned out to be 2.
